In patent US12312411 (Takeda / Millennium, dated 2025):
Positions count from the first letter of the chain named.

B1: CD38TM5 formatted into human IgG1 (antibody, V domains shown)
VH: EVQLLESGGGLVQPGGSLRLSCAASGFTFSDYYMNWIRQAPGKGLEWVSSISSSSSYIYYADSVKGRFTISRDNSKNTLYLQMNSLRAEDTAVYYCATEGPYYLYGFDIWGQGTLVTVSS
VL: QSVLTQPPSASGTPGQRVTISCSGSSSNIGSNYVYWYQQLPGTAPKLLIYGNSNRPSGVPDRFSGSKSGTSASLAISGLRSEDEADYYCQSYDNTLSGVIFGGGTKLTVLG
B2: CD38TM2 formatted into human IgG1 (antibody, V domains shown)
VH: EVQLLESGGGLVQPGGSLRLSCAASGFTFSSYWMHWVRQAPGKGLEWVSAISGSGGGTFYADSVKGRFTISRDNSKNTLYLQMNSLRAEDTAVYYCAREGETSFGLDVWGQGTLVTVSS
VL: B1 VL with S31G, G51R, S53N, N54Q, N94S, T95S, G98V, V99S, I100V
B3: CD38TM1 formatted into human IgG1 (antibody, V domains shown)
VH: EVQLLESGGGLVQPGGSLRLSCAASGFTFSDYYMSWVRQAPGKGLEWVSAISGSGGSTYYADSVKGRFTISRDNSKNTLYLQMNSLRAEDTAVYYCAREHSNYFYGMDVWGQGTLVTVSS
VL: QSVLTQPPSASGTPGQRVTISCSGSSSNIGSNYVYWYQQLPGTAPKLLIYGNSNRPSGVPDRFSGSKSGTSASLAISGLRSEDEADYYCQSYDSSLSGSGVFGGGTKLTVLG
B4: CD38TM3 formatted into human IgG1 (antibody, V domains shown)
VH: QVQLVQSGAEVKKPGESLKISCKGSGYSFTSYWIGWVRQMPGKGLEWMGIIYPGDSDTRYSPSFQGQVTISADKSISTAYLQWSSLKASDTAMYYCARGPSTGFWSGNYFDYWGQGTLVTVSS
VL: QTVVTQEPSLTVSPGETVTLTCASSTGAVTSGFYPNWFQQKPGQAPRALIYATNNKYSWTPARFSGSLLGDKAALTLSRVQPEDEADYYCLVYYDGAWVFGGGTKLTVLG
B5: CD38 targeting reference molecule #1 (CD38TR1) scFv fused to Shiga toxin A subunit (CD38TR1-SLTA) (scFv)
chain: MKEFTLDFSTAKTYVDSLNVIRSAIGTPLQTISSGGTSLLMIDSGSGDNLFAVDVRGIDPEEGRFNNLRLIVERNNLYVTGFVNRTNNVFYRFADFSHVTFPGTTAVTLSGDSSYTTLQRVAGISRTGMQINRHSLTTSYLDLMSHSGTSLTQSVARAMLRFVTVTAEALRFRQIQRGFRTTLDDLSGRSYVMTAEDVDLTLNWGRLSSVLPDYHGQDSVRVGRISFGSINAILGSVALILNCHHHASAVAAEFPKPSTPPGSSGGAPDIQMTQSPSSLSASVGDRVTITCKASEDIYNRLTWYQQKPGKAPKLLISGATSLETGVPSRFSGSGSGTDFTFTISSLQPEDIATYYCQQYWSNPYTFGQGTKVEIKGGGGSQVQLQESGPGLVRPSQTLSLTCTVSGFSLTSYGVHWVRQPPGRGLEWIGVMWRGGSTDYNAAFMSRLNITKDNSKNQVSLRLSSVTAADTAVYYCAKSMITTGFVMDSWGQGSLVTVSS
B6: CD38TM6 formatted into human IgG1 (antibody, V domains shown)
VH: EVQLLESGGGLVQPGGSLRLSCAASGFTFDDYGMTWVRQAPGKGLEWVSGINWNGGSTGYADSVKGRFTISRDNSKNTLYLQMNSLRAEDTAVYYCARGGLFHDSSGYYFGHWGQGTLVTVSS
VL: QSVLTQPPSASGTPGQRVTISCSGSSSNIGNSYVSWYQQLPGTAPKLLIYRNNQRPSGVPDRFSGSKSGTSASLAISGLRSEDEADYYCSAWDDNLSVLFGGGTKLTVL

Experiments:
[1] = molecular target: cynomolgus CD38 on cells expressing recombinant cynomolgus CD38 (cynomolgus, UniProt Q5VAN0 1-301)
[2] = molecular target: T1, human CD38 on human multiple myeloma MOLP-8 cells (human, UniProt P28907 1-300); test: cell-based or functional assay
[3] = molecular target: T1, human CD38 on human multiple myeloma …; test: flow cytometry, IgG1 at 100 nM on MOLP-8 cells, MFI over secondary-only control
[4] = molecular target: T1, human CD38 on human multiple myeloma …; test: flow cytometry titration of IgG1 on MOLP-8 cells, nonlinear fit
[5] = molecular target: recombinant cynomolgus monkey CD38 (purified, plate-coated) (cynomolgus, UniProt Q5VAN0 44-301); test: ELISA, plate-coated recombinant cynomolgus CD38, scFv-SLTA fusion titrated
[6] = molecular target: recombinant human CD38 (purified, plate-coated) (human, UniProt P28907 43-300); test: ELISA, plate-coated recombinant CD38, scFv-SLTA fusion titrated

Row | Binder | FOB (fold-over-background of MFI) [1] [fold over background] | % ADCC (mean) [2] [%] | % CDC (mean) [2] [%] | FOB (fold-over-background of MFI) [3] [fold over background] | Kd [4] [nM] | binding result [5] | Kd [6] [ng/mL]
1 | B1 | 104 | 35.2 | 4.7 | 550 | 34 |  | 
2 | B2 | 272 |  |  |  |  |  | 
3 | B3 |  | 29 | 15 |  | 32 |  | 
4 | B4 | 528 |  |  |  |  |  | 
5 | B5 |  |  |  |  |  | no binding | 7.7
6 | B6 | 176 | 50.4 | 34.3 | 104 | 4.6 |  | 
